Changes are numbered by the printed parent chain.
What was measured:
[1] = molecular target: T1, NP of A/California/07/2009(H1N1/H1S) (influenza A virus, NYMC X-181 derived …); test: ELISA on virus-infected fixed MDCK cells
[2] = molecular target: T1, NP of A/California/07/2009(H1N1/H1S); test: sandwich ELISA, capture IgG; NP of lysed virus titrated; HRP-NP16 detection
[3] = molecular target: T1, NP of A/California/07/2009(H1N1/H1S); test: sandwich ELISA, capture IgG; NP of lysed virus titrated; HRP-NP17 detection

T1 sequence (P03466 whole entry): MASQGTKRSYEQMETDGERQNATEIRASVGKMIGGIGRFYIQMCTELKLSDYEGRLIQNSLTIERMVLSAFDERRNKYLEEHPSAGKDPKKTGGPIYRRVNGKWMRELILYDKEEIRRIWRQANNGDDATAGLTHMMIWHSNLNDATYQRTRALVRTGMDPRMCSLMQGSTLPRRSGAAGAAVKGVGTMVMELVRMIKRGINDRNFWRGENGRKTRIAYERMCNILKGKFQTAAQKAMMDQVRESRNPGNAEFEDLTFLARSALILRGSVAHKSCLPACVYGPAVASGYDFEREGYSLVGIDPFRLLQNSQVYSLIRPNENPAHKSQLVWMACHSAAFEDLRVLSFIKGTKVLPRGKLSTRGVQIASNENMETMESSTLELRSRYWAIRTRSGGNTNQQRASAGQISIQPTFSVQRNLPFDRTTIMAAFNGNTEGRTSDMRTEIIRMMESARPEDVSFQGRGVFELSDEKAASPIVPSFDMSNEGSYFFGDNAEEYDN

B1: NP21 (antibody, V domains shown)
VH: EVQLVESGGGLVQPGGSLRLSCAASGFTINGYGIHWVRQAPGKGLEWVAGIWPYGGSTFYADSVKGRFTISADTSKNTAYLQMNSLRAEDTAVYYCARFYNNHGGIMDYWGQGTLVTVSS
VL: DIQMTQSPSSLSASVGDRVTITCRASQDVYFYVAWYQQKPGKAPKLLIYGSRWLYSGVPSRFSGSGSGTDFTLTISSLQPEDFATYYCQQYSNFPVTFGQGTKVEIKR
- EC50 [1]: 0.73 nM
- EC50 [2]: 2.67 nM
- EC50 [3]: 0.815 nM

B2: NP5 (antibody, V domains shown)
VH: EVQLVESGGGLVQPGGSLRLSCAASGFTISNGSIHWVRQAPGKGLEWVAGIWPSGGSTSYADSVKGRFTISADTINNSAYLQMNSLRAEDTAVYYCARWNYWGQGTLVTVSS
VL: B1 VL with Y30G, F31W, Y32S, Y91G, S92Y, F94G, V96L
- EC50 [2]: 3.32 nM
- EC50 [3]: 0.918 nM

B3: NP3 (antibody, V domains shown)
VH: B1 VH with N30S, G31N, Y54F, S57F, F59S, Y100H, N101W, H103D, G104H, I106Y
VL: B1 VL with Y30G, F31W, G50S, S51T, R52T, W53G, S92Y, F94Y, V96I
- EC50 [1]: 0.55 nM
- EC50 [2]: 1.96 nM
- EC50 [3]: 0.834 nM

B4: NP7 (antibody, V domains shown)
VH: EVQLVESGGGLVQPGGSLRLSCAASGFTISNGGIHWVRQAPGKGLEWVAGIGPYGGFTSYADSVKGRFTISADTSKNTAYLQMNSLRAEDTAVYYCARFYSNYYGYHGVMDYWGQGTLVTVSS
VL: B1 VL with Y30F, F31G, Y32W, Y49S, G50Y, R52A, W53S, S92F, F94Y, V96L
- EC50 [2]: 2.36 nM
- EC50 [3]: 0.9 nM

B5: NP15 (antibody, V domains shown)
VH: EVQLVESGGGLVQPGGSLRLSCAASGFTISNWYIHWVRQAPGKGLEWVAGIGPYGGSTYYADSVKGRFTISADTSKNTAYLQMNSLRAEDTAVYYCARFHWDHLHGMDYWGQGTLVTVSS
VL: B1 VL with Y30D, F31N, Y32N, Y49S, G50Y, R52T, W53G, S92W, F94Y, V96I
- EC50 [1]: 0.249 nM
- EC50 [2]: 2.79 nM
- EC50 [3]: 0.806 nM

B6: NP19 (antibody, V domains shown)
VH: EVQLVESGGGLVQPGGSLRLSCAASGFTISSWGIHWVRQAPGKGLEWVAGIGPFWGYTSYADSVKGRFTISADTSKNTAYLQMNSLRAEDTAVYYCARFGVDNYGYMDYWGQGTLVTVSS
VL: B1 VL with Y30S, F31G, Y32W, Y49S, G50W, R52T, W53G, S92F
- EC50 [1]: 0.304 nM
- EC50 [2]: 5.37 nM
- EC50 [3]: 0.863 nM

B7: NP14 (antibody, V domains shown)
VH: EVQLVESGGGLVQPGGSLRLSCAASGFTIDNGGIHWVRQAPGKGLEWVASIWPSWGSTSYADSVKGRFTISADTSKNTAYLQMNSLRAEDTAVYYCARFNFGVFGVMDYWGQGTLVTVSS
VL: B1 VL with Y30D, F31N, Y32D, S51P, W53G, N93S, F94W, V96L
- EC50 [1]: 3.43 nM

B8: NP18 (antibody, V domains shown)
VH: B7 VH with D30S, N31G, N100H, F101N, V103G, G105L
VL: B1 VL with P8S, Y30G, F31Y, S51P, W53F, F94W, V96I
- EC50 [1]: 0.168 nM

B9: NP4 (antibody, V domains shown)
VH: EVQLVESGGGLVQPGGSLRLSCAASGFTISNSSIHWVRQAPGKGLEWVAGIGPSGGYTFYADSVKGRFTISADTSKNTAYLQMNSLRAEDTAVYYCARFHSHNSYYSYSHYGYMDYWGQGTLVTVSS
VL: B1 VL with Y30G, F31W, Y32G, Y49S, S51P, R52S, W53S, S92F, F94Y, V96I
- EC50 [1]: 4.02 nM
- EC50 [2]: 2.11 nM
- EC50 [3]: 0.862 nM

B10: NP9 (antibody, V domains shown)
VH: EVQLVESGGGLVQPGGSLRLSCAASGFTINNGWIHWVRQAPGKGLEWVAGIGPYWGFTSYADSVKGRFMISADTSKNTAYLQMNSLRAEDTAVYYCARFDSDHDHHYSYYYYYDNGYMDYWGQGTLVTVSS
VL: B1 VL with Y30W, Y32S, S51T, R52T, W53S, S92F, F94Y, V96L
- EC50 [1]: 2.14 nM
- EC50 [2]: 53.9 nM

B11: NP6 (antibody, V domains shown)
VH: EVQLVESGGGLVQPGGSLRLSCAASGFTINDGSIHWVRQAPGKGLEWVAGIGPFGGFTYYADSVKGRFTISADTSKNTAYLQMNSLRAEDTAVYYCARSGYSGSFDYWGQGTLVTVSS
VL: B1 VL with Y32G, S51T, R52S, W53Y, Y91F, F94W, V96I
- EC50 [1]: 6.46 nM
- EC50 [2]: 3.12 nM
- EC50 [3]: 3.07 nM

B12: NP10 (antibody, V domains shown)
VH: EVQLVESGGGLVQPGGSLRLSCAASGFTIDNGSIHWVRQAPGKGLEWVAWIWPFGGSTSYADSVKGRFTISADTSKNTAYLQMNSLRAEDTAVYYCARSWSSGYDYWGQGTLVTVSS
VL: B1 VL with Y30S, F31W, Y32S, Y49S, R52T, F94S, V96I
- EC50 [2]: 3.3 nM
- EC50 [3]: 0.798 nM

B13: NP16 (antibody, V domains shown)
VH: EVQLVESGGGLVQPGGSLRLSCAASGFTIGNSGIHWVRQAPGKGLEWVAWIGPYWGFTSYADSVKGRFTISADTSKNTAYLQMNSLRAEDTAVYYCARFGNHWHLFMDYWGQGTLVTVSS
VL: B1 VL with Y30G, F31S, Y49S, G50W, S51T, R52T, W53G, S92F, N93S, F94Y
- EC50 [1]: 0.239 nM
- EC50 [2]: 4.41 nM
- EC50 [3]: 0.919 nM

B14: NP17 (antibody, V domains shown)
VH: B1 VH with N30S, Y32G, G33S, G50S, Y54F, Y100G, N101H, N102G, G104N, G105V
VL: DIQMTQSPSSLSASVGDRVTITCRASQDVGYSVAWYQQKPGKAPKLLISSPGGLYSGVPSRFSGSGSGTDFTLTISSLQPEDFATYYCQQYYDYPVTFGQGTKVEIKR
- EC50 [1]: 28.7 nM
- EC50 [2]: 3.28 nM
- EC50 [3]: 1.02 nM

B15: NP8 (antibody, V domains shown)
VH: EVQLVESGGGLVQPGGSLRLSCAASGFTINSFGIHWVRQAPGKGLEWVAGIGPFGGSTFYADSVKGRFTISADTSKNTAYLQMNSLRAEDTAVYYCARGFYWFDYWGQGTLVTVSS
VL: B14 VL with G30D, Y31D, S49Y, S50W, P51T, G52R, G53Y, Y91G, D93N, V96L
- EC50 [2]: 2.33 nM
- EC50 [3]: 0.752 nM

B16: NP13 (antibody, V domains shown)
VH: EVQLVESGGGLVQPGGSLRLSCAASGFTINNYGIHWVRQAPGKGLEWVASIGPYGGSTYYADSVKGRFTISADTSKNTAYLQMNSLRAEDTAVYYCARFGYFNWLDMDYWGQGTLVTVSS
VL: B14 VL with S32W, P51A, G52S, Y91G, Y92W, Y94W, V96I
- EC50 [1]: 1.68 nM
- EC50 [2]: 168 nM
- EC50 [3]: 47.9 nM

B17: NP12 (antibody, V domains shown)
VH: EVQLVESGGGLVQPGGSLRLSCAASGFTIDNGYIHWVRQAPGKGLEWVASIWPSWGSTYYADSVKGRFTISADTSKNTAYLQMNSLRAEDTAVYYCARGFYYYGDYWGQGTLVTVSS
VL: B14 VL with Y31G, S32N, P51T, G52A, Y94F, V96L
- EC50 [1]: 6.09 nM

— patent publication US20230212554A1 (published 2023)
